The results in this text go back to the RNAGym collection of RNA variant scans (doi:10.1073/pnas.2313332121).

The chains are these.
B1: TPR 5TU (parent)
chain: GGAUCUUCUCGAUCUAACAAAAAAGACAAAUCUGCCACAAAGCUUGAGAGCAUCUUCGGAUGCAGAGGCGGCAGCCUUCGGUGGCGCGAUAGCGCCAACGUUCUCAACUAUGACACGCAAAACGCGUGCUCCGUUGAAUGGAGUUUAUCAUG

Fewer inactive variants are shown than the library holds.

Variants of B1 are the subject of the data set. Briefly: polymerase ribozyme fitness, log enrichment relative to wild type (log ratio); higher = more active; in vitro selection for triplet polymerase activity. Put shortly:
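Libraries of mutants in each subunit of a heterodimeric triplet polymerase ribozyme were generated by PCR and transcribed. In triplicate, each went through one in vitro selection round: annealing with biotinylated primer, partner subunit and triplets; frozen incubation at −7 °C; gel excision of extended constructs; streptavidin-bead capture; RT-PCR. Fitness, taken from Illumina sequencing of input and output libraries, is the logarithm of a genotype's enrichment over wild-type enrichment, averaged across replicates with inverse-variance weights. The logarithm is base 2, and genotypes needed ≥10 input reads and ≥1 read per output to be kept.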
With G128U A137U, the “polymerase ribozyme fitness (log ratio)” value is -3.34.
In the case of U127G U144G, the “polymerase ribozyme fitness (log ratio)” value is -1.7.
To A122G A138G C149U belongs -4.
To G140A U144A belongs -3.68; to A122G U144G, 0.851; to G124A A137G, -1.05.
For the variant G126A, the “polymerase ribozyme fitness (log ratio)” value came to 0.682.
As for G126C, the “polymerase ribozyme fitness (log ratio)” value was determined as 1.28.
In the case of G126U, the “polymerase ribozyme fitness (log ratio)” value worked out at 0.31.
As for A120U U145C, the figure is -0.0409; as for U127G U134A, -4.18; as for U127A U134C G141C, -3.82.
For U134A G141U, the “polymerase ribozyme fitness (log ratio)” value is -2.41.
To U130C U144C A147C belongs -1.95; to C125A A147U, -0.189.
As for C131U U144G, the figure is -0.864; as for G126U C132U, -0.717.
To A121U C125U belongs -0.154.
G141U G143A: the “polymerase ribozyme fitness (log ratio)” value was -2.79.
To A120G G141C A147U belongs -1.01; to A120C G136U G140C, -4.19.
To C125U G126A belongs -3.14.
To U151C belongs -2.78; to U151A, -3.44.
For the variant U151G, the “polymerase ribozyme fitness (log ratio)” value is -3.49.
As for A122U U146C, the figure is -0.714; as for A115U U134C, -1.19; as for U127G G136A, -2.89.
For the variant G136C U151G, the “polymerase ribozyme fitness (log ratio)” value is at most -4.2.
To A115C U127C belongs -1.1; to A115U U146G, -2.23; to G124C G140C, -4.05.
To A138U belongs -3.87; to A138C, -3.67.
Turning to A138G, the “polymerase ribozyme fitness (log ratio)” value is -1.9.
To U135A G136C belongs -4.14; to G124A U148G, -3.69.
As for G124A U148C, the “polymerase ribozyme fitness (log ratio)” value was -0.766.
To G124A G140C belongs -3.89; to G117A C123A A150G, -1.18.
Regarding C118U A142C, the “polymerase ribozyme fitness (log ratio)” value is -0.682.
To A115G G141A belongs -0.426; to A115U G126A, -3.35.
To A119C U139C belongs -3.46; to A122U G141C, 0.115; to U134A A142C, -2.66.
As for U134A A142G, the figure is -3.04.
On to U145C U146G, for which the “polymerase ribozyme fitness (log ratio)” value was determined as 0.121.
As for A122G U127A G128A, the figure is -4.01.
Regarding A120G G128U, the “polymerase ribozyme fitness (log ratio)” value was -2.36.
As for G136A A147G, the figure is -1.36; as for A119U U144A, -0.171; as for C118G G141A, -0.0985.
To G126U G152U belongs -2.47; to U146G A150C, at most -4.2.
To C116U U148A belongs -3.85.
Turning to U139G A150C, the “polymerase ribozyme fitness (log ratio)” value was -3.84.
To G126A G143A belongs -1.92; to C116U U146C, -0.11; to C125U G141C, -3.85.
As for C116U U134C, the figure is -0.00566; as for C118U U146C, -1.27.
To C116U A142U belongs -0.344; to A121C G128C, -2.44.
In the case of G128A G141A G143U U144G U151A, the “polymerase ribozyme fitness (log ratio)” value was at most -4.2.
To A138U G141C belongs -3.88; to U134C A142C, -0.0581; to G124A A150G, -0.501.
As for G124C G141C, the figure is -1.16.
As for A121C C125U G143U, the figure is -2.41; as for C132U C149G, -3.84; as for A137C A138G, -3.68.
Regarding C132U A150G, the “polymerase ribozyme fitness (log ratio)” value is -2.47.
For the variant U146G A150G G152A, the “polymerase ribozyme fitness (log ratio)” value is -1.84.
Take A115G: the “polymerase ribozyme fitness (log ratio)” value was -1.
To A115C belongs -0.641; to A115U, -1.48.
On to A138U A147U, for which the “polymerase ribozyme fitness (log ratio)” value is -3.38.
With C131G G136U G141U G143U, the “polymerase ribozyme fitness (log ratio)” value is at most -4.2.
As for G140A G143U, the figure is at most -4.2; as for C118G A122C, -1.49.
To A142C U144A U148G belongs at most -4.2; to U127C C131A G152U, -3.91; to U135A G143A A147G, at most -4.2.
To G126A C129G belongs -3.97.
In the case of A122C G126A, the “polymerase ribozyme fitness (log ratio)” value was -0.186.
To C118U U145A belongs -0.179; to C125U U134G A142C, -3.76; to C123U U145A, 0.729.
As for G124C U135A, the figure is -1.84; as for G117A C123A, 0.34.
Regarding A115C U145C, the “polymerase ribozyme fitness (log ratio)” value is -2.43.
To G124A G136A belongs -0.107; to C118G A150G, -2.14; to C116U A122U, -0.326.
To C116G U146G belongs -0.306; to C116U C125G, 1.23.
As for G141A U144C, the figure is -3.08; as for U135G G141U U146G, at most -4.2; as for A137U G143U, -3.39.
Take A115G C116A U127G: the “polymerase ribozyme fitness (log ratio)” value was at most -4.2.
Regarding A115C C123A, the “polymerase ribozyme fitness (log ratio)” value was -1.17.
To U127G G141A belongs -3.27; to U135G U144G, -2.41.
To C118U U148G belongs -3.62; to C118U U148A, -2.79.
To C116G A119U belongs 0.403; to C125U A147U, -1.83; to G117C A120G, 0.308.
Consider G140U U146C, for which the “polymerase ribozyme fitness (log ratio)” value is -3.33.
Take G140U U146G: the “polymerase ribozyme fitness (log ratio)” value is -3.88.
As for C118U U135C, the figure is -2.19; as for G136U U144G, -3.29.
Turning to G117U U145G, the “polymerase ribozyme fitness (log ratio)” value was -3.12.
To U146C belongs 0.00807; to U146G, -0.513.
On to U146A, for which the “polymerase ribozyme fitness (log ratio)” value was -0.305.
As for A119U C129U, the figure is 0.265.
As for C116U A119G, the figure is -0.704; as for C116U A119U, -0.298.
As for C116U C118A U139G, the figure is 0.554; as for C116U G141A, -1.01; as for C123A, -0.404.
C123U: the “polymerase ribozyme fitness (log ratio)” value worked out at 0.225.
To C123G belongs -0.337; to C116U U135A, -0.565.
To G124U U135C belongs -2.36.
To C118U G140U belongs -3.11; to C118A A121C U144C, -0.821; to A137U G141U, -3.93.
Consider A137U G141A, for which the “polymerase ribozyme fitness (log ratio)” value is -3.24.
